We go through two molecules from patent US7235648B1, “Yeast cells engineered to produce pheromone system protein surrogates, and uses therefor” (Cadus Technologies, Inc., priority 1993, dated 2007).

The target in assay [1] is T1, yeast Gβγ (Saccharomyces cerevisiae, UniProt P18851+P18852).
T1 construct: Endogenous Gβγ subunits will be provided by the yeast STE4 and STE18 loci; endogenous in cells; host or cells: S. cerevisiae gpa1 tester strains
T1 sequence (P18851 1-423): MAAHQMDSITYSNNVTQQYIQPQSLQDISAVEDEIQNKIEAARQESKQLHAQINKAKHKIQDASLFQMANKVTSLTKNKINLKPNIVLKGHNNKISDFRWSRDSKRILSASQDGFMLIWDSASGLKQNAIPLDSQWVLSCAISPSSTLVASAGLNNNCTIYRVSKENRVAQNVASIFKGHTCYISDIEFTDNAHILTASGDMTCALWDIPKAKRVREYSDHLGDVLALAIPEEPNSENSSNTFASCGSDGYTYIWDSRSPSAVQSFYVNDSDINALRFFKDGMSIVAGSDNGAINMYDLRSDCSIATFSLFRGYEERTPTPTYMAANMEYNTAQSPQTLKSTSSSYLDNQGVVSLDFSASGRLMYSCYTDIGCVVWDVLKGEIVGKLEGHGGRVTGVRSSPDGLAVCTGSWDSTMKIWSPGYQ
T1 sequence (P18852 1-107 limits assumed): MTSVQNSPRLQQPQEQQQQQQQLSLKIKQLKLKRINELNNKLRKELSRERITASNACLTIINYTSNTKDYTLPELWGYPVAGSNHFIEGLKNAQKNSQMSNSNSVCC
In words: Coupling of Gα subunits and hybrids to yeast Gβγ: complementation of gpa1 growth arrest phenotype and fus1-HIS3 transcription. It counts as cell-based. From the text:
We have tested the hypothesis that there are switch region determinants involved in the association of Gα with Gβγ by constructing a series of hybrid Gα proteins encoding portions of GPA1 and GαS in different combinations (FIG. 11).
Preferably, levels of Gα and Gβγ subunits are balanced. For example, heterologous Gα subunits may be expressed from a low copy (CEN ARS) vector containing the endogenous yeast GPA1 promotor and the GPA1 3′ untranslated region. The minimum criterion, applied to a heterologous Gα subunit with respect to its ability to couple functionally to the yeast pheromone pathway, is that it complement a gpa1 genotype when expressed from the GPA1 promoter on low copy plasmids or from an integrated, single copy gene. In the work described in this application, all heterologous Gα subunits have been assayed in two biological systems.

For assay [2], the target named is T2, C5a receptor (Homo sapiens, UniProt P21730).
T2 sequence (P21730 1-350): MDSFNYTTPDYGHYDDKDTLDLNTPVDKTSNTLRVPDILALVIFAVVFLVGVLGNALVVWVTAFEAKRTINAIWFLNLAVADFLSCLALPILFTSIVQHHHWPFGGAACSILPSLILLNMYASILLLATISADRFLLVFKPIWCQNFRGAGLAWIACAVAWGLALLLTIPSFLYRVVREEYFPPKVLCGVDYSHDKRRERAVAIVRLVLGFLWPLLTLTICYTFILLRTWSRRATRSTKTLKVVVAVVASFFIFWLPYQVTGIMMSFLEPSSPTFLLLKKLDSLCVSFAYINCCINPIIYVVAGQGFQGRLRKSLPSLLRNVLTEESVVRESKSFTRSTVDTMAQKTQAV
The assay can be described thus: Coupling of the C5a receptor to Gα chimeras in yeast. It counts as cell-based. Also on record: expressed in transfected cells; host or cells: S. cerevisiae CY455 / CY878 carrying GPA1(41)-Gαi2, plasmid Cadus 1303. The note with it: GPA1 promoter; single copy integrated or low copy plasmid. As for the experimental part:
Coupling by chimeric Gα_proteins._The Gα chimeras described above were tested for the ability to couple a mammalian G protein-coupled receptor to the pheromone response pathway in yeast. Results obtained using GPA141-Gαi2 to couple the human C5a receptor to the pheromone response pathway in autocrine strains of yeast are disclosed in Example 10 above.
With this phenomenon, there is an increase in growth on selective media for strains containing heterologous receptor in the absence of ligand. It is possible that some receptor antagonists would decrease LIRMA. It has been noted (Milano, et al. 1994) that specific antagonists reduce LIRMA of the β2 adrenergic receptor when that receptor is overexpressed in transgenic mice.

The target of assay [3] is T3, induced HL60 cells (Homo sapiens, UniProt P21730).
T3 construct: endogenous in cells; host or cells: induced HL60 cells
T3 sequence (P21730 1-350): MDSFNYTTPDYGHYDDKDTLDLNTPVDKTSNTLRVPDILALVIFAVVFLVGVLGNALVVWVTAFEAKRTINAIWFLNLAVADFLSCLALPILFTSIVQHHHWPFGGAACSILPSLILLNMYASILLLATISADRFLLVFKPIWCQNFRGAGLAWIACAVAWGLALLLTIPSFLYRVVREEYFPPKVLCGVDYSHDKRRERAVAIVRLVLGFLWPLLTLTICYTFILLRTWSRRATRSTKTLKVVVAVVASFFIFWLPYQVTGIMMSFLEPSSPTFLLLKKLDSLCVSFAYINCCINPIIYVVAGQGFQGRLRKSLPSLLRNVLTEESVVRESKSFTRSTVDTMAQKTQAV
In words: Competition with radiolabeled C5a for binding on induced HL60 cells. As to conditions: C5a expressed in yeast.

For assay [4], the target named is T2, C5a receptor. In words: Autocrine yeast expressing human C5a receptor and human C5a, growth read-out (fus1-HIS3). It counts as cell-based. Also on record: expressed in transfected cells; host or cells: S. cerevisiae CY455 / CY878 carrying GPA1(41)-Gαi2, plasmid Cadus 1303. An excerpt:
The strain used for this analysis, CY455 (MATαtbt1-1 ura3 leu2 trp1 his3 fus1-HIS3 can1 ste14::TRP1 ste3*1156), contains the following significant modifications. A pheromone inducible HIS3 gene, fus1-HIS3, is integrated at the FUS1 locus. A hybrid gene containing sequence encoding the first 41 amino acids of GPA1 (the yeast Gα subunit) fused to sequence encoding human Gαi2a (minus codons for the N-terminal 33 amino acids) replaces GPA1 at its normal chromosomal location. The yeast STE14 gene is disrupted to lower the basal level of signaling through the pheromone response pathway. The yeast a-factor receptor gene, STE3, is deleted. The last two modifications are probably not essential but appear to improve the signal-to-noise ratio. […]
Three colonies were picked from each transformation and grown overnight in media lacking leucine and uracil, at pH 6.8 with 25 mM PIPES (LEU^− URA^− pH6.8 with 25 mM PIPES). […] The optical density at 600 nm of a 1/20 dilution of these cultures was determined and the cultures were diluted into 25 mM PIPES pH 6.8 to a final OD600 of 0.2. […] For verification of pheromone pathway activation and quanti-fication of the stimulation, the activity of the fus1 promoter was determined colorometrically using a fus1-lacZ fusion in a similar set of strains. […]

In assay [5] the target is T2, C5a receptor. More on the design: host or cells: mammalian cells (not specified). The note with it: mammalian cells; Boulay et al. 1991; read-out: binding constant of C5a to its receptor; cited from earlier work.

B1: GPA141-Gαi2: first 41 amino acids of GPA1 fused to human Gαi2 (protein)
chain: MGCTVSTQTIGDESDPFLQNKRANDVIEQSLQLEKQRDKNEVKLLLLGAGESGKSTIVKQMKIIHE
For the molecule B1, the “functional complementation of the growth arrest phenotype of gpa1 strains” value in assay [1] is on record as “functionally complement”. In assay [2], the “Result (coupling of the C5a receptor to Gα chimeras in yeast)” value is reported as “GPA141-Gαi2single copy, Good signal to noise ratio:”.

B2: C5a: 74 amino acid polypeptide that derives from the fifth component of complement; anaphylatoxin (protein)
chain: TLQKKIEEIAAKYKHSVVKKCCYDGACVNNDETCEQRAARISLGPRCIKAFTECCVVASQLRANISHKDMQLGR
For the molecule B2, the “competition for binding with radiolabeled C5a” value in assay [3] was “compete for binding”. Further, in assay [4] (CY455 R+L+ strain, pH 6.8, 1 mM aminotriazole), the “growth on selective plates lacking histidine (pheromone pathway activation via C5a receptor)” value is “show growth on the selective plates”. Besides, the “aminotriazole concentration on which the R+L+ strain will grow” value in assay [4] (CY455 R+L+, highest concentration tested) is “up to 5 mM”. In assay [5], the Kd is 1 nM.
